T1: CEACAM5 on cells (UniProt P06731 35-685)
T1 sequence (looked up): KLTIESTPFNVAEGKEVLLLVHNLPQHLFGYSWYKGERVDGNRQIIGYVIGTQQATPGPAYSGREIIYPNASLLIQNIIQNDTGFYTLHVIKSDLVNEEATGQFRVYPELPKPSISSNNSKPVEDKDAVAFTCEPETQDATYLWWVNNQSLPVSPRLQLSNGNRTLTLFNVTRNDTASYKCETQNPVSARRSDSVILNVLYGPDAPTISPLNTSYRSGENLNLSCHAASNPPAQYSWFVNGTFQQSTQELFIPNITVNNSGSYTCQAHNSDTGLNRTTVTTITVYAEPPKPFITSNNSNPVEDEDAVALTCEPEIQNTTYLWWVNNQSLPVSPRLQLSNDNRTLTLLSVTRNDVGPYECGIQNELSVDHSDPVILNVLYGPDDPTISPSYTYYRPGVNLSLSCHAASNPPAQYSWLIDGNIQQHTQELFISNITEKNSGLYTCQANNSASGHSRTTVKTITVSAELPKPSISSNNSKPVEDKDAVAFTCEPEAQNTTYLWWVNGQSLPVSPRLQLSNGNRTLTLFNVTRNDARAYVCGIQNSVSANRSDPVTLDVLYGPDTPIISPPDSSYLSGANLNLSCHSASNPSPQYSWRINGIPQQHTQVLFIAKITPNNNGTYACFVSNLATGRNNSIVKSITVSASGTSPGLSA


Columns and labels:
[1] = biological target: HER2 on cells (human, UniProt P04626 23-1255); assay: cell-based or functional assay
[2] = biological target: T cell receptor alpha/beta on primary cynomolgus T cells (cynomolgus); assay: cell-based or functional assay
[3] = biological target: T1, CEACAM5 on cells; assay: cell-based or functional assay
[4] = biological target: T1, CEACAM5 on cells; assay: cell-based or functional assay; remark: listed apart in the source
[5] = biological target: T1, CEACAM5 on cells; assay: flow cytometry, LoVo cells; parameters: Top: unit not given here
[6] = biological target: T1, CEACAM5 on cells; assay: flow cytometry, LS174T cells; parameters: Top: unit not given here
[7] = biological target: T2, EGFR on cells (UniProt P00533 25-1210, limits assumed); assay: flow cytometry on HER14 cells, MeanFI (PE)
T2 construct: whole, on cells; also called HER14 cells (NIH3T3 transfected with EGFR); EGFR on LS174T and LoVo cells

Binder	IC50 (column head prints EC50), xCELLigence based cytotoxicity (readout 18 h), MCF-7, human T cells, E/T 15:1 [1]	IC50, xCELLigence based cytotoxicity (readout 18 h), SKBR3, human T cells, E/T 15:1 [1]	IC50, xCELLigence cynomolgus T cell mediated SKBR3 killing assay [2]	IC50, xCELLigence based cytotoxicity (readout 18 h), MCF-7, human T cells, E/T 15:1 [1]	IC50, xCELLigence human T cell mediated killing of LS174T cells, E:T 15, 30-40 h [3]	IC50, xCELLigence human T cell mediated killing of LoVo cells, E:T 15, 30-40 h [3]	IC50, xCELLigence human T cell mediated killing of LS174T cells, E:T 15, 50-60 h [4]	IC50, xCELLigence human T cell mediated killing of LoVo cells, E:T 15, 50-60 h [4]	EC50 [5]	Top [5]	EC50 [6]	Top [6]	binding result [7]
T017000102 (bispecific antibody) EVQLVESGGGLVQAGGSLRLSCAASGITFSINTMGWYRQAPGKQRELVALISSIGDTYYADSVKGRFTISRDNAKNTVYLQMNSLKPEDTAVYYCKRFRTAAQGTDYWGQGTLVTVSSGGGGSGGGGSGGGGSGGGGSGGGGSGGGGSGGGGSEVQLVESGGGLVQPGGSLRLSCVASGDVHKINFLGWYRQAPGKEREKVAHISIGDQTDYADSAKGRFTISRDESKNMVYLQMNSLKPEDTAVYFCRAFSRIYPYDYWGQGTLVTVSSGAADYKDHDGDYKDHDIDYKDDDDKGAAHHHHHH	0.12 nM	0.014 nM	0.046 nM	–	–	–	–	–	–	–	–	–	–
T017000103 (bispecific antibody) EVQLVESGGGLVQPGGSLRLSCVASGDVHKINFLGWYRQAPGKEREKVAHISIGDQTDYADSAKGRFTISRDESKNMVYLQMNSLKPEDTAVYFCRAFSRIYPYDYWGQGTLVTVSSGGGGSGGGGSGGGGSGGGGSGGGGSGGGGSGGGGSEVQLVESGGGLVQAGGSLRLSCAASGITFSINTMGWYRQAPGKQRELVALISSIGDTYYADSVKGRFTISRDNAKNTVYLQMNSLKPEDTAVYYCKRFRTAAQGTDYWGQGTLVTVSSGAADYKDHDGDYKDHDIDYKDDDDKGAAHHHHHH	–	0.0038 nM	0.012 nM	0.059 nM	–	–	–	–	–	–	–	–	–
T017000109 (other, Irrelevant (anti-egg lysozyme) x CEACAM5 x TCR Nanobody construct; entry includes the FLAG3-HIS6 tag; also called cAbLys3(D1E,Q5V,A6E,Q108L)-35GS-NbCEA5-35GS-T0170056G05-FLAG3-HIS6) EVQLVESGGGSVQAGGSLRLSCAASGYTIGPYCMGWFRQAPGKEREGVAAINMGGGITYYADSVKGRFTISQDNAKNTVYLLMNSLEPEDTAIYYCAADSTIYASYYECGHGLSTGGYGYDSWGQGTLVTVSSGGGGSGGGGSGGGGSGGGGSGGGGSGGGGSGGGGSEVQLVESGGGSVQAGGSLRLSCAASGDTYGSYWMGWFRQAPGKEREGVAAINRGGGYTVYADSVKGRFTISRDTAKNTVYLQMNSLRPDDTADYYCAASGVLGGLHEDWFNYWGQGTLVTVSSGGGGSGGGGSGGGGSGGGGSGGGGSGGGGSGGGGSEVQLVESGGGLVQPGGSLRLSCVASGDVHKINFLGWYRQAPGKEREKVAHISIGDQTDYADSAKGRFTISRDESKNMVYLQMNSLKPEDTAVYFCRAFSRIYPYDYWGQGTLVTVSSGAADYKDHDGDYKDHDIDYKDDDDKGAAHHHHHH	–	–	–	–	100 nM	9.3 nM	36 nM	2 nM	36 nM	18500	25 nM	51000	no binding (tested: 5e-7 M)
